Among the data in publication PMC10840515 are IC50 values, retold here.

Some results are limits rather than exact numbers.

The target of the first experiment is HLA-DR1 (HLA-DRA*0101, HLA-DRB1*0101) (human). Description: FP.
As a reminder, the IC50 is the concentration at which inhibition is half-maximal. A higher IC50 goes with weaker potency in that assay. As to nsp12 5019-5033, the IC50 is 2.89 µM.
Still for that read-out and setting: with N328-342 the figure was 4.01 µM; with S339-353, 5.99 µM; with N108-122, above 10 µM.
Substance nsp6 3801-3815 displayed an IC50 of 1.52 µM.
The substance E56-70 yielded an IC50 above 10 µM.
Same read-out and setting: with S344-358 the figure was above 10 µM; with S1015-1029, 7.39 µM; with ORF8 43-57, 0.43 µM.
For S235-249, the IC50 was 8.13 µM.
The substance N224-238 gave an IC50 of 2.77 µM.
N49-63 returned an IC50 of 0.493 µM.
In the case of S818-832, the IC50 is above 10 µM.
Still for that read-out and setting: with S990-1004 the figure was above 10 µM; with N127-141, above 10 µM.

The next experiment shares this target. Description: ELISA. In general terms: ELISA stands for enzyme-linked immunosorbent assay.
“SARS-CoV-2 Spike peptide S486-505 (Wuhan HU-1)”: the IC50 is 1.95 µM.

A further experiment shares this target. Nature of the experiment: ELISA. This is another data set of the same source.
In turn, SARS-CoV-2 Spike peptide S866-880 displayed a 50% inhibitory concentration (IC50) of 1.15 µM.
The same measure, in the same setting: with SARS-CoV-2 Spike peptide S511-530 the figure was 2.62 µM; with “SARS-CoV-2 orf1ab (nsp3) peptide nsp3 1350-1364”, 0.14 µM; with “SARS-CoV-2 Spike peptide S486-505 (Wuhan HU-1)”, 3.05 µM.
Same read-out and setting: with “SARS-CoV-2 orf1ab (nsp14) peptide nsp14 6420-6434” the figure was 0.541 µM; with SARS-CoV-2 Spike peptide S167-181, above 10 µM.
Substance SARS-CoV-2 Spike peptide S512-526 yielded an IC50 of 0.662 µM.
